These results are taken from the Immune Epitope Database (IEDB).

Test [1] deals with HLA-A*02:01. The test is described as follows: IEDB peptide-MHC binding, cellular MHC/competitive/fluorescence; ≥ and ≤ were set here for values at or beyond the usual limits of such assays.
Test [2] addresses HLA-B*35:01. The test is described as follows: IEDB peptide-MHC binding, purified MHC/direct/fluorescence; filed as Kd, often an IC50 or EC50 that approximates it; ≥ and ≤ were set here for values at or beyond the usual limits of such assays. The note with it: source organism: Burkholderia mallei.
The target of test [3] is HLA-B*27:05. The test is described as above.
Test [4] addresses HLA-A*01:01. The test is described as above.
Test [5] concerns the target HLA-A*03:01. The test is described as above. The note with it: source organism: Burkholderia mallei.
In test [6] the target is HLA-B*07:02. The description is as above.
The target in test [7] is HLA-A*26:01. Described as above. The conditions noted are these: source organism: Burkholderia mallei.
For test [8], the target named is HLA-A*02:01. The test is described as above.
The target in test [9] is HLA-B*58:01. The test is described as above.
Test [10] has as its target HLA-B*15:01. The description is as above. The conditions noted are these: source organism: Burkholderia mallei.
For test [11], the target named is HLA-B*08:01. Described as above. The note with it: source organism: Burkholderia mallei.
Test [12] has as its target HLA-A*24:03. The description is as above. The note with it: source organism: Burkholderia mallei.
The target in test [13] is HLA-B*40:01. The description is as above.
The target of test [14] is HLA-C*08:02. The test is described as above.
Test [15] deals with HLA-A*11:01. Described as above.
Test [16] has as its target HLA-C*05:01. The test is described as above.
For test [17], the target named is HLA-A*31:01. The test is described as above.
Test [18] has as its target HLA-A*69:01. Described as above.
The target in test [19] is HLA-B*35:01. Description: IEDB peptide-MHC binding, purified MHC/competitive/fluorescence; filed as Kd, often an IC50 or EC50 that approximates it; ≥ and ≤ were set here for values at or beyond the usual limits of such assays. The note with it: source organism: Mycobacterium tuberculosis variant bovis BCG str. Pasteur 1173P2.
In test [20] the target is HLA-B*15:17. The description is as above. The note with it: source organism: Mycobacterium tuberculosis variant bovis BCG str. Pasteur 1173P2.
Test [21] has as its target HLA-A*26:01. The test is described as above. The note with it: source organism: Mycobacterium tuberculosis variant bovis BCG str. Pasteur 1173P2.
Test [22] concerns the target HLA-A*68:02. The test is described as above. The note with it: source organism: Mycobacterium tuberculosis variant bovis BCG str. Pasteur 1173P2.
Test [23] deals with HLA-B*18:01. The test is described as above. The conditions noted are these: source organism: Mycobacterium tuberculosis variant bovis BCG str. Pasteur 1173P2.
Test [24] has as its target HLA-B*15:01. The test is described as above. The conditions noted are these: source organism: Mycobacterium tuberculosis variant bovis BCG str. Pasteur 1173P2.
In test [25] the target is HLA-A*26:03. The description is as above. The conditions noted are these: source organism: Mycobacterium tuberculosis variant bovis BCG str. Pasteur 1173P2.
For test [26], the target named is HLA-B*57:01. The test is described as follows: IEDB peptide-MHC binding, purified MHC/direct/fluorescence; filed as Kd, often an IC50 or EC50 that approximates it; ≥ and ≤ were set here for values at or beyond the usual limits of such assays. The note with it: source organism: Mycobacterium tuberculosis.
For test [27], the target named is HLA-B*46:01. The test is described as above. The note with it: source organism: Mycobacterium tuberculosis.
For test [28], the target named is HLA-B*48:01. Described as above. The note with it: source organism: Mycobacterium tuberculosis.
Test [29] deals with HLA-A*02:12. The test is described as follows: IEDB peptide-MHC binding, purified MHC/competitive/fluorescence; filed as Kd, often an IC50 or EC50 that approximates it; ≥ and ≤ were set here for values at or beyond the usual limits of such assays. The note with it: source organism: human gammaherpesvirus 4.
The target of test [30] is HLA-A*02:03. The description is as above. The conditions noted are these: source organism: human gammaherpesvirus 4.
Test [31] has as its target HLA-A*02:19. The test is described as above. The note with it: source organism: human gammaherpesvirus 4.
Test [32] concerns the target HLA-A*02:01. Described as above. The conditions noted are these: source organism: human gammaherpesvirus 4.
In test [33] the target is HLA-A*02:11. The test is described as above. The note with it: source organism: human gammaherpesvirus 4.
Test [34] deals with HLA-A*02:06. Described as above.
The target in test [35] is HLA-A*02:16. The description is as above. The note with it: source organism: human gammaherpesvirus 4.
Test [36] concerns the target HLA-A*69:01. The test is described as above.
The target of test [37] is HLA-A*26:02. The description is as above. The conditions noted are these: source organism: Mycobacterium tuberculosis variant bovis BCG str. Pasteur 1173P2.
For test [38], the target named is HLA-A*01:01. The test is described as above. The note with it: source organism: Mycobacterium tuberculosis variant bovis BCG str. Pasteur 1173P2.
Test [39] deals with HLA-B*14:02. The test is described as follows: IEDB peptide-MHC binding, purified MHC/direct/fluorescence; filed as Kd, often an IC50 or EC50 that approximates it; ≥ and ≤ were set here for values at or beyond the usual limits of such assays. The conditions noted are these: source organism: Homo sapiens.
In test [40] the target is HLA-C*06:02. Described as above. The conditions noted are these: source organism: Entamoeba histolytica HM-1:IMSS.
In test [41] the target is HLA-C*07:02. Described as above. The conditions noted are these: source organism: Entamoeba histolytica HM-1:IMSS.
The mark [42] stands for this setting: source organism: Burkholderia mallei.
Setting [43] is: source organism: Burkholderia pseudomallei 91.
[44] abbreviates: source organism: Mycobacterium tuberculosis.
Setting [45] is: source organism: human gammaherpesvirus 4.
The mark [46] stands for this setting: source organism: Mycobacterium tuberculosis variant bovis BCG str. Pasteur 1173P2.
Where [47] appears, read: source organism: Entamoeba histolytica HM-1:IMSS.

Turning to LLLDVPTAAV, the IC50 in test [1] (source organism: Homo sapiens) came out at 530 nM.

ISDSAQNMM: the dissociation constant Kd is 40.2 nM in test [2]; at least 20 µM in test [3] (setting [42]); 1040 nM in test [4] (setting [42]); at least 20 µM in test [5]; at least 20 µM in [6] (setting [42]); at least 20 µM in test [7]. The Kd is at least 20 µM in test [8] (setting [42]); 152 nM in test [9] (setting [42]); at least 20 µM in test [10]; at least 20 µM in [11]; at least 20 µM in test [12]; at least 20 µM in [13] (setting [42]). Also, the Kd in test [14] (setting [43]) is at most 1 nM; in test [15] (setting [42]), at least 20000 nM; in test [16] (setting [43]) it was 3 nM; in test [17] (setting [42]), at least 20 µM; in [18] (setting [42]) it was at least 20 µM.

For AVFLSYIGY, the Kd is 3.95 µM in test [19]; 314 nM in [20]; at least 20000 nM in test [21]; 3.04 µM in [22]; at least 20 µM in test [23]; 1840 nM in test [24]. Further, the dissociation constant (Kd) in test [25] is at least 20 µM; in test [26], at least 20 µM; in test [3] (setting [44]) it was at least 20 µM; in test [4] (setting [44]), at least 20000 nM; in test [6] (setting [44]), at least 20 µM; in [8] (setting [44]), at least 20 µM. Besides, the Kd in test [9] (setting [44]) is 17000 nM; in [13] (setting [44]) it was at least 20 µM; in test [27] it was at least 20 µM; in test [15] (setting [44]), 1560 nM; in test [28], at least 20 µM; in test [17] (setting [44]), at least 20 µM. The sequence further came in with a dissociation constant (Kd) in test [18] (setting [44]) of at least 20 µM.

Regarding CLGGLLTMV, the Kd is at most 1 nM in test [29]; 0.67 nM in test [30]; 7.5 nM in test [31]; 23 nM in test [32]; at most 0.1 nM in [33]; at most 0.1 nM in test [34] (setting [45]). For the same sequence, the Kd in [35] was at most 0.1 nM; in test [36] (setting [45]), 3.17 µM. The sequence also came in with an IC50 in test [1] (setting [45]) of 2500 nM.

As to KMDASLGNLFA, in test [1] (source organism: Homo sapiens), the IC50 amounted to 1110 nM.

Turning to ATADLELAY, the Kd in test [37] was 130 nM; in [38], 22.7 nM; in [20], 11.1 nM; in [21], 428 nM; in test [22], at least 20 µM; in [25], at least 20 µM. The Kd is 2500 nM in [34] (setting [46]); at least 20 µM in test [36] (setting [46]); at least 20 µM in test [3] (setting [44]); at least 20 µM in [6] (setting [44]); 0.818 µM in test [8] (setting [44]); 9.8 nM in test [9] (setting [44]). In addition, the Kd in test [13] (setting [44]) is at least 20 µM; in [15] (setting [44]), 10.5 nM; in test [28], at least 20 µM; in test [17] (setting [44]), at least 20 µM.

Turning to NQIIHRDL, in test [39], the Kd came to 130 nM.

The sequence LQVAHEEI had a Kd in [39] of 528 nM.

For FAMRLLQAV, the Kd in [40] amounted to 844 nM; in test [14] (setting [47]) it was 17 nM; in [41], 2890 nM; in test [16] (setting [47]) it was 3170 nM.

VSPLHRVL came in with a Kd in test [39] of 89.6 nM.
